T1: full-length human CEA with N-terminal SNAP tag on transfected HEK293 cells (human, UniProt P06731 35-685, SNAP tag labelled with terbium)
T1 construct: whole, on cells; also called hu CEA-SNAP; CEACAM5
T1 sequence (looked up): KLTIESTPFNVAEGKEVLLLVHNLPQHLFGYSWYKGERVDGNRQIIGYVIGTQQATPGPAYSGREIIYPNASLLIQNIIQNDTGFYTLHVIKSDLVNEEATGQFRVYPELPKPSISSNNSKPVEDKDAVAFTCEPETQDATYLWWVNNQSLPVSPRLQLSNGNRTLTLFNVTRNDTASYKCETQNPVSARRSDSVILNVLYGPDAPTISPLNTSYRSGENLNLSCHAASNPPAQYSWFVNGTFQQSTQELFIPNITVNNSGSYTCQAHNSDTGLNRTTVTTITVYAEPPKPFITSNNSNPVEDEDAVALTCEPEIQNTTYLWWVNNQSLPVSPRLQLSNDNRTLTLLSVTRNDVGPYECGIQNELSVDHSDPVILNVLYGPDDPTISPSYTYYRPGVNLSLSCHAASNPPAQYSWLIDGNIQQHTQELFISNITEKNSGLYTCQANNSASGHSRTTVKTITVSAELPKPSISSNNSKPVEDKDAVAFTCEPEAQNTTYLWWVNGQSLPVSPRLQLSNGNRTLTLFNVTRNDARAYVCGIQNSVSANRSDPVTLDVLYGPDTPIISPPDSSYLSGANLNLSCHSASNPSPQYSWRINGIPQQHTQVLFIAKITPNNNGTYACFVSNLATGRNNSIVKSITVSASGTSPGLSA

B1: anti-FAP aVH P012.090 (VHH)
VHH: EVQLVESGGGLVQPGGSLRLSCAASSFNIKDTYIGWVRRAPGKEEELVAKIFRCSDGRTRYADSVKGRFTISCDTSKNTAYLQMNSLRAEDTAVYYCANIYKTHYTYWGQGTTVTVSS
B2: anti-FAP aVH P014.087 (VHH)
VHH: EVQLVESGGGLVQPGGSLRLSCAASGFNIKDTCIGWVRRAPGKEEELVANICGHIGSTRYADSVKGRFTISADTSKNTAYLQMNSLRAEDTAVYYCANSYTYSYKYWGQGTTVTVSS
B3: anti-FAP aVH P011.064 (VHH)
VHH: EVQLVESGGGLVQPGGSLRLSCAASGFNIKDTCIGWVRRAPGKEEELVANICITDGKTRYADSVKGRFTISADTSKNTAYLQMNSLRAEDTAVYYCAYYSKYIGYRYWGQGTTVTVSS
B4: anti-FAP aVH P011.080 (VHH)
VHH: EVQLVESGGGLVQPGGSLRLSCAASGFNIKDTCIGWVRRAPGKEEELVANICQSGGYTRYADSVKGRFTISADTSKNTAYLQMNSLRAEDTAVYYCARYHKGVGYQYWGQGTTVTVSS
B5: anti-CD28 aVH P020.035 (VHH)
VHH: EVQLVESGGGLVQPGGSLRLSCAASGFNIKDTCIGWVRRAPGKEEELVADICGDDGHTRYADSVKGRFTISADTSKNTAYLQMNSLRAEDTAVYYCAYYSGSYYEYWGQGTTVTVSS
B6: anti-CD28 aVH P020.077 (VHH)
VHH: EVQLVESGGGLVQPGGSLRLSCAASGFNIKDTCIGWVRRAPGKEEELVAGICQHYGDTRYADSVKGRFTISADTSKNTAYLQMNSLRAEDTAVYYCATDDWIYPGYIYWGQGTTVTVSS
B7: anti-CD28 aVH P020.010 (VHH)
VHH: EVQLVESGGGLVQPGGSLRLSCAASGFNIKDTCIGWVRRAPGKEEELVAYICEGNGYTRYADSVKGRFTISADTSKNTAYLQMNSLRAEDTAVYYCAAEGKETYYYQYWGQGTTVTVSS
B8: anti-CD28 aVH P020.057 (VHH)
VHH: EVQLVESGGGLVQPGGSLRLSCAASGFNIKDTCIGWVRRAPGKEEELVAAICYTQGDTRYADSVKGRFTISADTSKNTAYLQMNSLRAEDTAVYYCAASQYDSYYTYWGQGTTVTVSS
B9: anti-CD28 aVH P020.023 (VHH)
VHH: EVQLVESGGGLVQPGGSLRLSCAASGFNIKDTCIGWARRAPGKEEELVAAICDYNGHTRYADSVKGRFTISADTSKNTAYLQMNSLRAEDTAVYYCAQSDYDSKYSYWGQGTTVTVSS
B10: anti-CD28 aVH P020.063 (VHH)
VHH: EVQLVESGGGLVQPGGSLRLSCAASGFNIKDTCIGWVRRAPGKEEELVAAICPEYGDTRYADSVKGRFTISADTSKNTAYLQMNSLRAEDTAVYYCASSDYDSAYSYWGQGTTVTVSS
B11: anti-CD28 aVH P020.051 (VHH)
VHH: EVQLVESGGGLVQPGGSLRLSCAASGFNIKDTCIGWVRRAPGKEEELVAAICKTQGDTRYADSVKGRFTISADTSKNTAYLQMNSLRAEDTAVYYCAAANYDSPYTYWGQGTTVTVSS
B12: anti-CD28 aVH P020.029 (VHH)
VHH: EVQLVESGGGLVQPGGSLRLSCAASGFNIKDTCIGWVRRAPGKEEELVAGICEAGGDTRYADSVKGRFTISADTSKNTAYLQMNSLRAEDTAVYYCAESQQGSYYSYWGQGTTVTVSS
B13: anti-CD28 aVH P020.034 (VHH)
VHH: EVQLVESGGGLVQPGGSLRLSCAASGFNIKDTCIGWVRRAPGKEEELVAAICHHGGDTRYADSVKGRFTISADTSKNTAYLQMNSLRAEDTAVYYCAESQVDSYYSYWGQGTTVTVSS
B14: anti-CD28 aVH P020.017 (VHH)
VHH: EVQLVESGGGLVQPGGSLRLSCAASGFNIKDTCIGWVRRAPGKEEELVAAICPDEGDTRYADSVKGRFTISADTSKNTAYLQMNSLRAEDTAVYYCAAAKYDDRYNYWGQGTTVTVSS
B15: anti-CD28 aVH P020.037 (VHH)
VHH: EVQLVESGGGLVQPGGSLRLSCAASGFNIKDTCIGWVRRAPGKEEELVAAICDSGGDTRYADSVKGRFTISADTSKNTAYLQMNSLRAEDTAVYYCAASDYNSHYSYWGQGTTVTVSS
B16: anti-CD28 aVH P020.065 (VHH)
VHH: EVQLVESGGGLVQPGGSLRLSCAASGFNIKDTCIGWVRRAPGKEEELVAGICYTYGDTRYADSVKGRFTISADTSKNTAYLQMNSLRAEDTAVYYCASSEVDSYYSYWGQGTTVTVSS
B17: anti-CD28 aVH P020.042 (VHH)
VHH: EVQLVESGGGLVQPGGSLRLSCAASGFNIKDTCIGWVRRAPGKEEELVAAICREAGDTRYADSVKGRFTISADTSKNTAYLQMNSLRAEDTAVYYCAAADYDSTYIYWGQGTTVTVSS
B18: anti-CD28 aVH P020.027 (VHH)
VHH: EVQLVESGGGLVQPGGSLRLSCAASGFNIKDTCIGWVRRAPGKEEELVAGICRDGGDTRYADSVKGRFTISADTSKNTAYLQMNSLRAEDTAVYYCAASDYDSYYAYWGQGTTVTVSS
B19: anti-CD28 aVH P023.017 (VHH)
VHH: EVQLVESGGGLVQPGGSLRLSCAASGFNIKDTCIGWVRRAPGKEEELVARICGEYGSTRYADSVKGRFTISADTSKNTAYLQMNSLRAEDTAVYYCAAQPRYYDVYDYWGQGTTVTVSS
B20: anti-CD28 aVH P023.057 (VHH)
VHH: EVQLVESGGGLVQPGGSLRLSCAASGFNIKDTCIGWVRRAPGKEEELVAEICGRYGSTRYADSVKGRFTISADTSKNTAYLQMNSLRAEDTAVYYCAAEHRYPGQYTYWGQGTTVTVSS
B21: anti-CD28 aVH P023.001 (VHH)
VHH: EVQLVESGGGLVQPGGSLRLSCAASGFNIKDTCIGWVRRAPGKEEELVAYICPSHGYTRYADSVKGRFTISADTSKNTAYLQMNSLRAEDTAVYYCADHKNTQWGYAYWGQGTTVTVSS
B22: anti-CD28 aVH P023.039 (VHH)
VHH: EVQLVESGGGLVQPGGSLRLSCAASGFNIKDTCIGWVRRAPGKEEELVADICIKHGYTRYADSVKGRFTISADTSKNTAYLQMNSLRAEDTAVYYCADWTQSGYHYGYWGQGTTVTVSS
B23: anti-CD28 aVH P019.020 (VHH)
VHH: EVQLVESGGGLVQPGGSLRLSCAASGFNIKDSSTYIGWVRRAPGKEEELVAYIYCTQGETRYADSVKGRFTISCDTSKNTAYLQMNSLRAEDTAVYYCASWGGNYPYYYWGQGTTVTVSS
B24: anti-CEA aVH P118.061 (VHH)
VHH: EVQLVESGGGLVQPGGSLRLSCAASGFNIKDTCIGWVRRAPGKEEELVANICPYHGYTRYADSVKGRFTISADTSKNTAYLQMNSLRAEDTAVYYCAIVSYVDEYYNYWGQGTTVTVSS
B25: anti-CEA aVH P127.014 (VHH)
VHH: EVQLVESGGGLVQPGGSLRLSCAASGFNIKDTCIGWVRRAPGKEEELVAAICTYKGTTRYADSVKGRFTISADTSKNTAYLQMNSLRAEDTAVYYCAIYSHYYDYYNYWGQGTTVTVSS
B26: anti-CEA aVH P124.034 (VHH)
VHH: EVQLVESGGGLVQPGGSLRLSCAASGFNIKDTCIGWVRRAPGKEEELVAAICPYIGETRYADSVKGRFTISADTSKNTAYLQMNSLRAEDTAVYYCATVARKYNQYNYWGQGTTVTVSS
B27: anti-CEA aVH P127.002 (VHH)
VHH: EVQLVESGGGLVQPGGSLRLSCAASGFNIKDTCIGWVRRAPGKEEELVASICKYTGKTRYADSVKGRFTISADTSKNTAYLQMNSLRAEDTAVYYCAIVASGDGWYNYWGQGTTVTVSS
B28: anti-CEA aVH P124.021 (VHH)
VHH: EVQLVESGGGLVQPGGSLRLSCAASGFNIKDTCIGWVRRAPGKEEELVAAICPYKGYTRYADSVKGRFTISADTSKNTAYLQMNSLRAEDTAVYYCANVAYSGGHYNYWGQGTTVTVSS
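Throughout, for result: SPR at 25 °C with biotinylated human or murine FAP captured via neutravidin, aVH-containing bacterial supernatants diluted 1:3 as analyte, 600 s dissociation, blank supernatant without aVH as reference.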

The target in the first test is T2, murine FAP avi his, biotinylated (murine, UniProt P97321 27-761, biotin on the avi-tag).
T2 construct: also called muFAP; mu FAP
The test is described as follows: SPR, bacterial supernatant.
For the molecule B1, the binding result is listed as “no binding”.

As for B2, the binding result was “no binding”.

As to B3, the binding result is “no binding”.

With B4, the binding result is given as “no binding”.

A further test deals with T3, hu CD28-Fc (Fc-knob-avi and Fc-hole chains), biotinylated (human, biotin on the avi tag).
T3 construct: also called CD28-Fc-avi
Briefly: SPR, bacterial supernatant.
B5 yielded a koff of 0.00134 s⁻¹.

As to B6, the koff amounted to 0.0117 s⁻¹. This koff lies about 8.7-fold higher than the previous one.

In the case of B7, the koff turned out to be 0.00068 s⁻¹.

Molecule B8 came in with a koff of 0.0174 s⁻¹.

Molecule B9 came in with a koff of 0.0033 s⁻¹.

In the case of B10, the koff turned out to be 0.018 s⁻¹. This koff is about 5.5-fold higher than that of the molecule before.

With B11, the dissociation rate constant (koff) stood at 0.0135 s⁻¹.

B12 yielded a koff of 0.00151 s⁻¹.

Molecule B13 had a dissociation rate constant (koff) of 0.00216 s⁻¹.

In the case of B14, the off-rate constant (koff) was 0.0109 s⁻¹.

B15 had a koff of 0.0131 s⁻¹.

As for B16, the koff was found to be 0.00885 s⁻¹.

B17 returned a koff of 0.0144 s⁻¹.

Molecule B18 came in with a koff of 0.00145 s⁻¹.

In turn, B19 yielded an off-rate constant (koff) of 0.0175 s⁻¹.

For the molecule B20, the koff turned out to be 0.0777 s⁻¹.

Regarding B21, the koff is 0.0321 s⁻¹.

B22 yielded a koff of 0.0176 s⁻¹. This koff lies about 1.8-fold lower than the previous one.

For B23, the off-rate constant (koff) worked out at 0.0206 s⁻¹.

The next test has as its target T1, full-length human CEA with N-terminal …. Briefly: FRET (TagLite) on hu CEA-SNAP cells.
B24 displayed a Kd of 14.7 nM. In other words, the double-digit nanomolar range.

Molecule B25 gave a dissociation constant Kd of 9.1 nM.

B26 returned a Kd of 65.4 nM.

B27 came in with a Kd of 399 nM. This Kd is about 6.1-fold higher than that of the molecule before.

As to B28, the Kd worked out at 12.3 nM. This Kd is about 32-fold lower than that of the molecule before.

These data come from patent US20260070940A1 (Hoffmann-La Roche, published 2026).
